We go through four molecules from patent publication US20220056141A1 (DEUTSCHES KREBSFORSCHUNGSZENTRUM STIFTUNG DES OFFENTLICHEN …, published 2022).

The target of test [1] is T1, His tagged, recombinant FLT3 protein (Sino Biologicals) (human, UniProt P36888 27-541, limits assumed).
T1 construct: Bought protein; also called soluble recombinant FLT3 protein; not shown: His tag
T1 sequence (looked up): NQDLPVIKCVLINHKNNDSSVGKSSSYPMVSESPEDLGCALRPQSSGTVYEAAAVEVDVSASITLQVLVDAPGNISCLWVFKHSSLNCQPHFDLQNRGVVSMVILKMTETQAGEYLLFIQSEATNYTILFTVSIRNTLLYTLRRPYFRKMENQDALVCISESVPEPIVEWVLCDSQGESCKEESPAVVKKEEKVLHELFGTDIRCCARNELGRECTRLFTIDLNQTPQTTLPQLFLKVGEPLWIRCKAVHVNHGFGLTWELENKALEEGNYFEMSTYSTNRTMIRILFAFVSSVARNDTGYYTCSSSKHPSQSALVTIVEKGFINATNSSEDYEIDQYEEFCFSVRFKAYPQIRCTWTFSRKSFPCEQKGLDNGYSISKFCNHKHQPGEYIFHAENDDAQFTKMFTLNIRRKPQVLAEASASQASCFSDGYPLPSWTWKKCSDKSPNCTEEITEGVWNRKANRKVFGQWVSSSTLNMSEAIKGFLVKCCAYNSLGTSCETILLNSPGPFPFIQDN
As to the kind of experiment: SPR (Biacore X); antibody captured on protein A chip, His-tagged recombinant FLT3 in solution. The method, then: FIG. 3 depicts binding of different CC-2 variants to soluble recombinant FLT3 protein. Respective antibody variants were immobilized to a Biacore chip coated with protein A and binding of His tagged, recombinant FLT3 protein (Sino Biologicals) was determined using a Biacore X instrument (GE Healthcare). Shown are the results of various mutated variants of the FLT3 antigen binding domain (V1 to V5).
In FIG. 3 the binding of different FLT3 binding domain variants V1 to V5 as indicated above was tested for their dissociation constant using a soluble recombinant FLT3 protein. Respective antibody variants were immobilized to a Biacore chip coated with protein A and binding of His tagged, recombinant FLT3 protein (Sino Biologicals) was determined using a Biacore X instrument (GE Healthcare).

Another test concerns the target T2, FLT3 on Nalm16 cells (human, UniProt P36888 27-993).
T2 construct: whole, on cells; Endogenous FLT3 of the NALM16 leukemia cell line; also called NALM16 (FLT3+); NALM-16 cells expressing FLT3
T2 sequence (looked up): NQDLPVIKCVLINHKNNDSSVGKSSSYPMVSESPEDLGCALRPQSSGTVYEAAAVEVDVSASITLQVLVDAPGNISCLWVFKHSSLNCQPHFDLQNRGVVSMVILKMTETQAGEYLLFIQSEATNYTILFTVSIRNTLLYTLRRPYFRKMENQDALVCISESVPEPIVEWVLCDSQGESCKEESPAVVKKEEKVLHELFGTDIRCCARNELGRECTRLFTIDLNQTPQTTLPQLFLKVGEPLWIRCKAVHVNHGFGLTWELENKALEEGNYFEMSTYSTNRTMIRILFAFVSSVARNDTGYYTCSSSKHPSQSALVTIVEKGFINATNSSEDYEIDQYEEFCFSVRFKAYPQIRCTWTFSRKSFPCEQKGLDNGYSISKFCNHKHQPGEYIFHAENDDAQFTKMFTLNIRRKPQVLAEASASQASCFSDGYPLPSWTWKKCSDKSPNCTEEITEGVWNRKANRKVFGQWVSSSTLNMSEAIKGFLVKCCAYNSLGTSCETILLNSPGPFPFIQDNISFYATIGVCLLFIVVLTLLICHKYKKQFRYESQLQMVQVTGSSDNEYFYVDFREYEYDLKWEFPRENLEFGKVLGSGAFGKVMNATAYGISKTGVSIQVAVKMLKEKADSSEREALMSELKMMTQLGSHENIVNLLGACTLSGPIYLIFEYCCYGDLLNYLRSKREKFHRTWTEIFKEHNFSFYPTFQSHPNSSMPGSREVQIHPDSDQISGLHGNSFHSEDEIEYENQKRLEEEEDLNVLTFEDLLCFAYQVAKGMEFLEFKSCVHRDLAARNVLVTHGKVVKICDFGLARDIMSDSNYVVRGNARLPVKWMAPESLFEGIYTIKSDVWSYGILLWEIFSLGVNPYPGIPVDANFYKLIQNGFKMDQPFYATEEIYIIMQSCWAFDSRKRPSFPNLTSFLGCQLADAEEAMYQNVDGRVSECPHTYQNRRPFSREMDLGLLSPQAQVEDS
As to the kind of experiment: flow cytometry (row 'EC50, FACS binding' under the bars; binding to NALM16 cells of FIG. 4). Here is the method: (§1) In addition, antibody binding affinity was also tested using binding of the antibody to its target(s) as expressed on cells. Analyzed is the binding of CC-2 variants to Nalm16 cells expressing FLT3 (FIG. 4) or Jurkat cells expressing CD3 (FIG. 6). Variants V1 to V9 (with V6 being V6-V6) were produced after transient transfection of CHO cells using the insert sequences listed above. The antibodies were purified by protein A affinity- and size exclusion-chromatography. […] To measure antibody binding to FLT3 and CD3 NALM16 (FLT3+) and Jurkat (CD3+) cells were incubated with the respective variants for 30 min, washed, stained with a goat anti human Fcγ-specific and PE-conjugated secondary antibody (Jackson Immuno Research), washed again and analyzed by flow cytometry (FACSCalibur, BD Biosciences).

Another test has as its target T3, CD3 on Jurkat cells (human, UniProt P07766 23-207).
T3 construct: whole, on cells; also called Jurkat (CD3+); human cluster of differentiation 3 (CD3) antigen
As to the kind of experiment: flow cytometry (value under the bar; by the legend the EC50 of the binding to Jurkat cells of FIG. 6). Here is the method: as §1

T3 sequence (P07766 23-207): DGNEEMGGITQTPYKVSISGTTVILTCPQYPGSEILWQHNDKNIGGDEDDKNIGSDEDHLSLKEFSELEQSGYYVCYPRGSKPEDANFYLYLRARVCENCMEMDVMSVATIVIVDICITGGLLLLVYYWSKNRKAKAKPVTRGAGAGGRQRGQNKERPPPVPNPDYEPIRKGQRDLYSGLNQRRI

B1: bispecific FLT3xCD3 IgGsc antibody V2-V6 (CC-2 variant 2) (bispecific antibody)
heavy: QVQLVQSGAEVKKPGGSLRLSCAASGYTFTSYWMHWVRQAPGQGLEWIGEIDPSDSYTDYAQKFKDRVTISRDTSKNTLYLQLSSLRAEDTAVYYCARAITTTPFDFWGQGTLVTVSSASTKGPSVFPLAPSSKSTSGGTAALGCLVKDYFPEPVTVSWNSGALTSGVHTFPAVLQSSGLYSLSSVVTVPSSSLGTQTYICNVNHKPSNTKVDKKVEPKSCDKTHTCPPCPAPPVAGPSVFLFPPKPKDTLMISRTPEVTCVVVGVSHEDPEVKFNWYVDGVEVHNAKTKPREEQYNSTYRVVSVLTVLHQDWLNGKEYKCKVSNKQLPSPIEKTISKAKGQPREPQVYTLPPSRDELTKNQVSLTCLVKGFYPSDIAVEWESNGQPENNYKTTPPVLDSDGSFFLYSKLTVDKSRWQQGNVFSCSVMHEALHNHYTQKSLSLSPGKSGDIQMTQSPSSLSASVGDRVTITCRASQDIRNYLNWYQQKPGKAPKLLIYYTSRLESGVPSRFSGSGSGTDYTLTISSLQPEDFATYYCQQGNTLPWTFGQGTKVEIKGGGGSGGGGSGGGGSEVQLVESGGGLVQPGGSLRLSCAASGYSFTGYTMNWVRQAPGKGLEWVALINPYKGVSTYNQKFKDRFTISVDKSKNTAYLQMNSLRAEDTAVYYCARSGYYGDSDWYFDVWGQGTLVTVSS
light: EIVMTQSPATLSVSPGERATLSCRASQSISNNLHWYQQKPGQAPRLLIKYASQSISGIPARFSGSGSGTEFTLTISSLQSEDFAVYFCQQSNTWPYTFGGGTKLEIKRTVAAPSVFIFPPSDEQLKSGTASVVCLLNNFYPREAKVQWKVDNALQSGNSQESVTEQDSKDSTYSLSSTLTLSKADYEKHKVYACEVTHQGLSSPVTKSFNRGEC
notes: Fc-attenuated IgGsc format; also called Version 2; CC-2 V2
As for B1, in test [1], the Kd came out at 88 µM, the koff came out at 0.0318 s⁻¹ and the kon was 540 M⁻¹ s⁻¹. For the same molecule, the 50% effective concentration (EC50) with FLT3 on Nalm16 cells was found to be 10 nM.

B2: bispecific FLT3xCD3 IgGsc antibody V1-V6 (CC-2 variant 1) (bispecific antibody)
heavy: QVQLVQSGAEVKKPGGSLRLSCAASGYTFTSYWMHWVRQAPGQGLEWIGEIDPSDSYTDYAQKFKDRVTISRDTSKNTLYLQLSSLRAEDTAVYYCARAITTTPFDFWGQGTLVTVSSASTKGPSVFPLAPSSKSTSGGTAALGCLVKDYFPEPVTVSWNSGALTSGVHTFPAVLQSSGLYSLSSVVTVPSSSLGTQTYICNVNHKPSNTKVDKKVEPKSCDKTHTCPPCPAPPVAGPSVFLFPPKPKDTLMISRTPEVTCVVVGVSHEDPEVKFNWYVDGVEVHNAKTKPREEQYNSTYRVVSVLTVLHQDWLNGKEYKCKVSNKQLPSPIEKTISKAKGQPREPQVYTLPPSRDELTKNQVSLTCLVKGFYPSDIAVEWESNGQPENNYKTTPPVLDSDGSFFLYSKLTVDKSRWQQGNVFSCSVMHEALHNHYTQKSLSLSPGKSGDIQMTQSPSSLSASVGDRVTITCRASQDIRNYLNWYQQKPGKAPKLLIYYTSRLESGVPSRFSGSGSGTDYTLTISSLQPEDFATYYCQQGNTLPWTFGQGTKVEIKGGGGSGGGGSGGGGSEVQLVESGGGLVQPGGSLRLSCAASGYSFTGYTMNWVRQAPGKGLEWVALINPYKGVSTYNQKFKDRFTISVDKSKNTAYLQMNSLRAEDTAVYYCARSGYYGDSDWYFDVWGQGTLVTVSS
light: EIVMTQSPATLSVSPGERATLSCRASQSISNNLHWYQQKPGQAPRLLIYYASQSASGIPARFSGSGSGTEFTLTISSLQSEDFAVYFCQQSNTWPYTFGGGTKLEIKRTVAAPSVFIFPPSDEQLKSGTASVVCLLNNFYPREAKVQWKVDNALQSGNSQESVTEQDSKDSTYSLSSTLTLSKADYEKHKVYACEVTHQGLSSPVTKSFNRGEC
notes: Fc-attenuated IgGsc format: VH-CH1-CH2mod-CH3-scFv(UCHT1 V6) heavy chain and VL-CL light chain; also called Version 1; CC-2 V1
In the case of B2, in test [1], the Kd came out at 63 µM, the koff amounted to 0.022 s⁻¹ and the kon came to 489 M⁻¹ s⁻¹. This molecule displayed an EC50 with FLT3 on Nalm16 cells of more than 10 nM.

B3: bispecific FLT3xCD3 IgGsc antibody V6-V8 (bispecific antibody)
heavy: QVQLQQPGAELVKPGASLKLSCKSSGYTFTSYWMHWVRQRPGHGLEWIGEIDPSDSYKDYNQKFKDKATLTVDRSSNTAYMHLSSLTSDDSAVYYCARAITTTPFDFWGQGTTLTVSSASTKGPSVFPLAPSSKSTSGGTAALGCLVKDYFPEPVTVSWNSGALTSGVHTFPAVLQSSGLYSLSSVVTVPSSSLGTQTYICNVNHKPSNTKVDKKVEPKSCDKTHTCPPCPAPPVAGPSVFLFPPKPKDTLMISRTPEVTCVVVGVSHEDPEVKFNWYVDGVEVHNAKTKPREEQYNSTYRVVSVLTVLHQDWLNGKEYKCKVSNKQLPSPIEKTISKAKGQPREPQVYTLPPSRDELTKNQVSLTCLVKGFYPSDIAVEWESNGQPENNYKTTPPVLDSDGSFFLYSKLTVDKSRWQQGNVFSCSVMHEALHNHYTQKSLSLSPGKSGDIQMTQSPSSLSASVGDRVTITCRASQDIRNYLNWYQQKPGKAPKLLIYYTSRLESGVPSRFSGSGSGTDYTLTISSLQPEDFATYYCQQGNTLPWTFGQGTKVEIKGGGGSGGGGSGGGGSEVQLVESGGGLVQPGGSLRLSCAASGYSFTGYTMNWVRQAPGKGLEWVALINPYKGVSTYNQKFKDRFTISVDDSKNTAYLQMNSLRAEDTAVYYCARSGYYGDSDWYFDVWGQGTLVTVSS
light: DIVLTQSPATLSVTPGDSVSLSCRASQSISNNLHWYQQKSHESPRLLIKYASQSISGIPSRFSGSGSGTDFTLSINSVETEDFGVYFCQQSNTWPYTFGGGTKLEIKRTVAAPSVFIFPPSDEQLKSGTASVVCLLNNFYPREAKVQWKVDNALQSGNSQESVTEQDSKDSTYSLSSTLTLSKADYEKHKVYACEVTHQGLSSPVTKSFNRGEC
notes: Fc-attenuated IgGsc format; also called CC-2 V8
In the test with CD3 on Jurkat cells, B3 displayed an EC50 of 92 nM.

B4: bispecific FLT3xCD3 IgGsc antibody V6-V7 (bispecific antibody)
heavy: QVQLQQPGAELVKPGASLKLSCKSSGYTFTSYWMHWVRQRPGHGLEWIGEIDPSDSYKDYNQKFKDKATLTVDRSSNTAYMHLSSLTSDDSAVYYCARAITTTPFDFWGQGTTLTVSSASTKGPSVFPLAPSSKSTSGGTAALGCLVKDYFPEPVTVSWNSGALTSGVHTFPAVLQSSGLYSLSSVVTVPSSSLGTQTYICNVNHKPSNTKVDKKVEPKSCDKTHTCPPCPAPPVAGPSVFLFPPKPKDTLMISRTPEVTCVVVGVSHEDPEVKFNWYVDGVEVHNAKTKPREEQYNSTYRVVSVLTVLHQDWLNGKEYKCKVSNKQLPSPIEKTISKAKGQPREPQVYTLPPSRDELTKNQVSLTCLVKGFYPSDIAVEWESNGQPENNYKTTPPVLDSDGSFFLYSKLTVDKSRWQQGNVFSCSVMHEALHNHYTQKSLSLSPGKSGDIQMTQSPSSLSASVGDRVTITCRASQDIRNYLNWYQQKPGKAPKLLIYYTSRLESGVPSRFSGSGSGTDYTLTISSLQPEDFATYYCQQGNTLPWTFGQGTKVEIKGGGGSGGGGSGGGGSEVQLVESGGGLVQPGGSLRLSCAASGYSFTGYTMNWVRQAPGKGLEWVALINPYKGVSTYADSFKGRFTISVDDSKNTAYLQMNSLRAEDTAVYYCARSGYYGDSDWYFDVWGQGTLVTVSS
light: DIVLTQSPATLSVTPGDSVSLSCRASQSISNNLHWYQQKSHESPRLLIKYASQSISGIPSRFSGSGSGTDFTLSINSVETEDFGVYFCQQSNTWPYTFGGGTKLEIKRTVAAPSVFIFPPSDEQLKSGTASVVCLLNNFYPREAKVQWKVDNALQSGNSQESVTEQDSKDSTYSLSSTLTLSKADYEKHKVYACEVTHQGLSSPVTKSFNRGEC
notes: Fc-attenuated IgGsc format; also called CC-2 V7
In turn, B4 yielded an EC50 in the test with CD3 on Jurkat cells of 496 nM.
